# From IntAct's records for PubMed 31515488
# B1: Keratin-associated protein 3-2 (Homo sapiens), Q9BYR7 (parent)
# chain: MDCCASRSCSVPTGPATTICSSDKSCRCGVCLPSTCPHTVWLLEPICCDNCPPPCHIPQPCVPTCFLLNSCQPTPGLETLNLTTFTQPCCEPCLPRGC
# partner: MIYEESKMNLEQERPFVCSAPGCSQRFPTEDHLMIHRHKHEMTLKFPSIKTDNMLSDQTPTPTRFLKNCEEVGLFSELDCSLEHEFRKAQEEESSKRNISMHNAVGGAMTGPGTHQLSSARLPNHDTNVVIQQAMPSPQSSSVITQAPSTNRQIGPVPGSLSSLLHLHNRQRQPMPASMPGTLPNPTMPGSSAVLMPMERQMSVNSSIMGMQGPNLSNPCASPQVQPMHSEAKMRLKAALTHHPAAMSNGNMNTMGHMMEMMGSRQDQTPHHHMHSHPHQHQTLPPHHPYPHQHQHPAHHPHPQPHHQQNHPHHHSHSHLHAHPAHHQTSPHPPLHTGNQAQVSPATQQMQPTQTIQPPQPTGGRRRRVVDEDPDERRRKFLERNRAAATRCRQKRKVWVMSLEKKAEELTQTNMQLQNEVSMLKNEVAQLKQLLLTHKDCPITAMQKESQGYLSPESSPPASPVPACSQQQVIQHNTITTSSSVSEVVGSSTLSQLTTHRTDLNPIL
# B2: Notch homolog 2 N-terminal-like protein A (Homo sapiens), Q7Z3S9 (parent)
# chain: MCVTYHNGTGYCKCPEGFLGEYCQHRDPCEKNRCQNGGTCVAQAMLGKATCRCASGFTGEDCQYSTSHPCFVSRPCLNGGTCHMLSRDTYECTCQVGFTGKECQWTDACLSHPCANGSTCTTVANQFSCKCLTGFTGQKCETDVNECDIPGHCQHGGTCLNLPGSYQCQCLQGFTGQYCDSLYVPCAPSPCVNGGTCRQTGDFTFECNCLPETVRRGTELWERDREVWNGKEHDEN
# partner: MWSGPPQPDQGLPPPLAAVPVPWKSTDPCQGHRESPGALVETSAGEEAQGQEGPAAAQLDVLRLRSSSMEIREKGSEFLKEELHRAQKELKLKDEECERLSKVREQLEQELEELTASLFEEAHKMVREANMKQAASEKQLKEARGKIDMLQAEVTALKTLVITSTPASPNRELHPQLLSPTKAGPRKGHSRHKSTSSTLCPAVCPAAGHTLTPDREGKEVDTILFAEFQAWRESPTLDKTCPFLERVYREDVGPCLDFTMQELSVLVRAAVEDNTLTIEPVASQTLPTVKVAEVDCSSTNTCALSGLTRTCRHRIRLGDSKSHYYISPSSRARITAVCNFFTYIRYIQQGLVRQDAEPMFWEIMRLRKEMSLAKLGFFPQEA
# B3: Protein BTG1 (Homo sapiens), P62324 (parent)
# chain: MHPFYTRAATMIGEIAAAVSFISKFLRTKGLTSERQLQTFSQSLQELLAEHYKHHWFPEKPCKGSGYRCIRINHKMDPLIGQAAQRIGLSSQELFRLLPSELTLWVDPYEVSYRIGEDGSICVLYEASPAGGSTQNSTNVQMVDSRISCKEELLLGRTSPSKNYNMMTVSG
# B4: Ligand-dependent corepressor (Homo sapiens), Q96JN0 (parent)
# chain: MQRMIQQFAAEYTSKNSSTQDPSQPNSTKNQSLPKASPVTTSPTAATTQNPVLSKLLMADQDSPLDLTVRKSQSEPSEQDGVLDLSTKKSPCAGSTSLSHSPGCSSTQGNGRPGRPSQYRPDGLRSGDGVPPRSLQDGTREGFGHSTSLKVPLARSLQISEELLSRNQLSTAASLGPSGLQNHGQHLILSREASWAKPHYEFNLSRMKFRGNGALSNISDLPFLAENSAFPKMALQAKQDGKKDVSHSSPVDLKIPQVRGMDLSWESRTGDQYSYSSLVMGSQTESALSKKLRAILPKQSRKSMLDAGPDSWGSDAEQSTSGQPYPTSDQEGDPGSKQPRKKRGRYRQYNSEILEEAISVVMSGKMSVSKAQSIYGIPHSTLEYKVKERLGTLKNPPKKKMKLMRSEGPDVSVKIELDPQGEAAQSANESKNE
# B5: Isoform 1 of NF-kappa-B inhibitor beta (Homo sapiens), Q15653-1 (parent)
# chain: MAGVACLGKAADADEWCDSGLGSLGPDAAAPGGPGLGAELGPGLSWAPLVFGYVTEDGDTALHLAVIHQHEPFLDFLLGFSAGTEYMDLQNDLGQTALHLAAILGETSTVEKLYAAGAGLCVAERRGHTALHLACRVGAHACARALLQPRPRRPREAPDTYLAQGPDRTPDTNHTPVALYPDSDLEKEEEESEEDWKLQLEAENYEGHTPLHVAVIHKDVEMVRLLRDAGADLDKPEPTCGRSPLHLAVEAQAADVLELLLRAGANPAARMYGGRTPLGSAMLRPNPILARLLRAHGAPEPEGEDEKSGPCSSSSDSDSGDEGDEYDDIVVHSSRSQTRLPPTPASKPLPDDPRPV
# partner: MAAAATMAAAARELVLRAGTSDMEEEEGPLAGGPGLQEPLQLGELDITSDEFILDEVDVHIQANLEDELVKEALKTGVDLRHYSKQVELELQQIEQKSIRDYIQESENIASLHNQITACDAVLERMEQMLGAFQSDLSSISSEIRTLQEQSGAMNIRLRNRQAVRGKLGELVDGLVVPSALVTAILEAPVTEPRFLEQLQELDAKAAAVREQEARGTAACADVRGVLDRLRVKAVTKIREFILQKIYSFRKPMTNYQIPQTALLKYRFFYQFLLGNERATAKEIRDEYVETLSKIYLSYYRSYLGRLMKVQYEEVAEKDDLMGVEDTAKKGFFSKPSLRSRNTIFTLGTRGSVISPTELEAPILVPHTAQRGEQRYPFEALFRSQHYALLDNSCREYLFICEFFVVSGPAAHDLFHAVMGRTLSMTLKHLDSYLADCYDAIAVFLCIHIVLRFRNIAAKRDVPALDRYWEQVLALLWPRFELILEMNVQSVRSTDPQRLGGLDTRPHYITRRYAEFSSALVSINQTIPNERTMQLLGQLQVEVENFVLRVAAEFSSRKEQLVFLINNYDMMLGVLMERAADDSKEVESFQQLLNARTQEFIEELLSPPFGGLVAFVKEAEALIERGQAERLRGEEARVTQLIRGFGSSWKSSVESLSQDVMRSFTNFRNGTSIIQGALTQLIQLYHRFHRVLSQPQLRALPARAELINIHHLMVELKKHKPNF
# B6: Homeobox protein PKNOX1 (Homo sapiens), P55347 (parent)
# chain: MMATQTLSIDSYQDGQQMQVVTELKTEQDPNCSEPDAEGVSPPPVESQTPMDVDKQAIYRHPLFPLLALLFEKCEQSTQGSEGTTSASFDVDIENFVRKQEKEGKPFFCEDPETDNLMVKAIQVLRIHLLELEKVNELCKDFCSRYIACLKTKMNSETLLSGEPGSPYSPVQSQQIQSAITGTISPQGIVVPASALQQGNVAMATVAGGTVYQPVTVVTPQGQVVTQTLSPGTIRIQNSQLQLQLNQDLSILHQDDGSSKNKRGVLPKHATNVMRSWLFQHIGHPYPTEDEKKQIAAQTNLTLLQVNNWFINARRRILQPMLDSSCSETPKTKKKTAQNRPVQRFWPDSIASGVAQPPPSELTMSEGAVVTITTPVNMNVDSLQSLSSDGATLAVQQVMMAGQSEDESVDSTEEDAGALAPAHISGLVLENSDSLQ
# partner: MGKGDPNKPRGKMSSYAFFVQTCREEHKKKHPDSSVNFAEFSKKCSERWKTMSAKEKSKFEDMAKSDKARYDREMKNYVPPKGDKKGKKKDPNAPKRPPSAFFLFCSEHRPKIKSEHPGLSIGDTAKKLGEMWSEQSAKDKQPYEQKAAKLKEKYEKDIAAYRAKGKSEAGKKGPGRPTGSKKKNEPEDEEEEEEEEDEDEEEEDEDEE
# B7: Nanos homolog 2 (Homo sapiens), P60321 (parent)
# chain: MQLPPFDMWKDYFNLSQVVWALIASRGQRLETQEIEEPSPGPPLGQDQGLGAPGANGGLGTLCNFCKHNGESRHVYSSHQLKTPDGVVVCPILRHYVCPVCGATGDQAHTLKYCPLNGGQQSLYRRSGRNSAGRRVKR
# Variants of: B1
# Details: with creb5_human CREB5, Q02930
row,effect of a mutation on the interaction,Variant
1,with no effect,S8G
2,with no effect,R27C

# Variants of: B2
# Details: with RAB3IL1, Q8TBN0
row,effect of a mutation on the interaction,Variant
1,with no effect,A115T
2,with no effect,R74Q

# Variants of: B3
# Details: with cnot8_human CNOT8, Q9UFF9
# cnot8_human CNOT8, Q9UFF9, sequence (Q9UFF9 whole entry): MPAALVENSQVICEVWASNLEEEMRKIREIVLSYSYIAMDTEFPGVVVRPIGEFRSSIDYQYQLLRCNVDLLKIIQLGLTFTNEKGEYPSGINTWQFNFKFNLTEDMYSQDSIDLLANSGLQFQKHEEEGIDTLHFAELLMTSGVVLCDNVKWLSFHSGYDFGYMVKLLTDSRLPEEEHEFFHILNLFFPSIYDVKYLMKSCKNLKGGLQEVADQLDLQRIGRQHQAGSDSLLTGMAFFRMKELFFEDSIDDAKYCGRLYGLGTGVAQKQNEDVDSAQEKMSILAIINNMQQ
row,effect of a mutation on the interaction,Variant
1,with no effect,N139S

# Variants of: B4
# Details: with ctbp2_human CTBP2, P56545
row,effect of a mutation on the interaction,Variant
1,with no effect,T44M

# Variants of: B5
# Details: with vps52_human VPS52, Q8N1B4
row,effect of a mutation on the interaction,Variant
1,with no effect,Q69L

# Variants of: B6
# Details: with hmgb2_human HMGB2, P26583
row,effect of a mutation on the interaction,Variant
1,with no effect,E103D
2,with no effect,V265I

# Variants of: B6
# Details: with hmgb2_human HMGB2, P26583
# Remark: another data set of the same source
row,effect of a mutation on the interaction,Variant
1,with no effect,V265I

# Variants of: B7
# Details: with magac_human MAGEA12, P43365
# magac_human MAGEA12, P43365, sequence (P43365 whole entry): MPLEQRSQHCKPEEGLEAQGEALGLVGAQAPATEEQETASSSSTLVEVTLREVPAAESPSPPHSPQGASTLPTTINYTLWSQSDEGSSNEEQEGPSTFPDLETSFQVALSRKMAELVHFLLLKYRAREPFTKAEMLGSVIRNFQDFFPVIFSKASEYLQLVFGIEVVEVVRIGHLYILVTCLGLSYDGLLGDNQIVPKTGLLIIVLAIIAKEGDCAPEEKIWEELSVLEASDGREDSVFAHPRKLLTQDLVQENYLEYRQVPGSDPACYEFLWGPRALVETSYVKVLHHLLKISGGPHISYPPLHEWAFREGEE
row,effect of a mutation on the interaction,Variant
1,with no effect,H68Q

# Variants of: B7
# Details: with ccdb1_human CCNDBP1, O95273
# ccdb1_human CCNDBP1, O95273, sequence (O95273 whole entry): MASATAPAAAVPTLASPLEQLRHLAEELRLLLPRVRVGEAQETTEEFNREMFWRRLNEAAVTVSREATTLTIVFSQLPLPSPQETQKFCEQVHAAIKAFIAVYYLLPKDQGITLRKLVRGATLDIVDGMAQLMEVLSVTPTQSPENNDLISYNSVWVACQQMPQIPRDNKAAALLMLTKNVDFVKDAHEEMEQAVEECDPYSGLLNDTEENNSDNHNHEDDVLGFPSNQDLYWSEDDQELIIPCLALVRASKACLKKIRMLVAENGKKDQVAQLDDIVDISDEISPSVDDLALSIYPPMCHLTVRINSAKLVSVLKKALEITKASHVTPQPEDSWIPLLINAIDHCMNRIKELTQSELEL
row,effect of a mutation on the interaction,Variant
1,with no effect,H68Q
